One may read the IC50 as the concentration needed to halve the response being measured. A high value points to a need for much substance. The term Kd denotes the constant that tells how readily two partners part at equilibrium. High values mean a looser complex, low ones a tighter complex. As a reminder, the EC50 is the concentration at which the effect is half-maximal. High values mean a less potent agent, low ones a more potent agent.

Residue numbers refer to the chain shown, from its start. Several values for one entry are separate records, joined by “and”; a condition that tells them apart may be missing. Identical values can stand only once. Like-named read-outs stand apart in the source and are kept apart here.

The results in this text go back to patent US20090060916A1 (published 2009).

Assay [1] deals with T1, human IL-13 (human, UniProt P35225 35-146, biotinylated on the Biacore chip). Description: cell-based or functional assay.
The target in assay [2] is variant IL-13 (R130Q) (human), P35225. Description: cell-based or functional assay.
The target in assay [3] is T1, human IL-13. The experiment in a line: IL-13 sandwich ELISA, competition with coating antibody. Here is the method:
(§1) A MAXISORP™ plate (high protein binding ELISA plate, Nunc, Denmark) was coated overnight with 2.5 μg/ml coating antibody (Module Set, Bender MedSystems, Vienna, Austria), then washed once with 0.05% (v/v) Tween 20 in PBS before blocking with 0.5% (w/v) BSA 0.05% (v/v) Tween 20 in PBS. […] The plate was then incubated with TMB substrate (KPL, Gaithersburg, USA), and the reaction was stopped by the addition of HCl and the absorbance read at 450 nm.
(In general: ELISA stands for enzyme-linked immunosorbent assay.)

The target of assay [4] is T1, human IL-13. The experiment in a line: IL-13 RBA.
For assay [5], the target named is T1, human IL-13. The experiment in a line: IL-13 receptor alpha2 RBA, competition. Here is the method:
(§2) The plate was incubated for seven hours before being read in the 8200 cellular detection system (Applied Biosystems).

Assay [6] addresses T1, human IL-13. The experiment in a line: cell-based or functional assay. The source holds these as a separate data set.
In assay [7] the target is T2, human IL-4 (human, UniProt P05112 25-153, biotinylated in the receptor binding assay and on the Biacore chip).
T2 construct: also called interleukin-4; biotinylated IL-4
T2 sequence (looked up): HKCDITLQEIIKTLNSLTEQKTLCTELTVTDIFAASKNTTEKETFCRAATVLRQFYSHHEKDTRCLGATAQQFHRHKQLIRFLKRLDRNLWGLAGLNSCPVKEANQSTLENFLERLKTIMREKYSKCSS
The experiment in a line: Biacore SPR, biotinylated IL-4 on SA chip, co-inject. As to the method: Analytes were passed over the antigen-coated flow-cell, with in-line referencing against a blank flow-cell, at a flow rate of 30 μl/min in HBS-EP running buffer (Biacore). The first dAb was injected, followed immediately by injection of the second dAb using the Biacore's co-inject function.
On the technique in general: SPR reads the build-up and loss of mass on a sensor chip optically.

Assay [8] addresses T2, human IL-4. The experiment in a line: screening of the affinity maturation output; IL-4 RBA and cell assay.
Another assay concerns the target T3, rhesus IL-4 (rhesus, UniProt P51492 25-153).
T3 sequence (looked up): T2 sequence (looked up) with K2N, D4H, T6A, Q8R, K12E, E26K, V29I, F33L, N111D
The experiment in a line: inferred from TF-1 proliferation with rhesus IL-4. Here is the method: (§3) The mixture was incubated for 72 hours at 37° C. 5% CO₂. […] 96® reagent (colorometric reagent for determining viability, Promega, Madison, USA) was then added and the number of cells per well was quantified by measuring the absorbance at 490 nm.
(§4) A dose-response of the dAb will determine the ND50 in this set up.

Another assay has as its target T4, cynomolgous IL-4 (cynomolgous, UniProt P79339 25-153).
T4 construct: also called Cyno IL-4
T4 sequence: T2 sequence (looked up) with E26K, V29I, F33L
The experiment in a line: inferred from TF-1 proliferation with cynomolgous IL-4. As to the method:
as §3, §4

In assay [9] the target is T2, human IL-4. Description: IL-4 RBA: ELISA, IL-4R/Fc coated, biotinylated IL-4. The source says:
(§5) The wells were washed three times with 0.1% (v/v) Tween 20 in PBS, followed by three washes with PBS, before blocking with 2% (w/v) BSA in PBS. […] The reaction was stopped by the addition of HCl and the absorbance read at 450 nm.

Assay [10] addresses T1, human IL-13. The experiment in a line: cell-based or functional assay. This is another data set of the same source.
Assay [11] addresses T1, human IL-13. Description: DOM10 RBA (IL-13 sandwich ELISA per paragraph 473). As to the method: as §1
These in-line fusions were constructed and expressed as described above. […] After this incubation, the level of cell proliferation was determined.

The target in assay [12] is T1, human IL-13. The experiment in a line: IL-13 BIAcore binding assay.
Assay [13] deals with T1, human IL-13. The experiment in a line: cell-based or functional assay. The source holds these as a separate data set.
The target in assay [14] is T1, human IL-13. The experiment in a line: IL-13 BIAcore binding assay. The source holds these as a separate data set.
Assay [15] deals with T1, human IL-13. Description: cell-based or functional assay. This is another data set of the same source.
In assay [16] the target is T5, cynomolgous IL-13 (cynomolgous, UniProt Q0PW92 19-132, The Biacore assay used biotinylated cIL-13 according to our card. The biotin cannot be carried in the letters.). The experiment in a line: cell-based or functional assay.
The target in assay [17] is T1, human IL-13. The experiment in a line: Biacore SPR, biotinylated human IL-13 on SA chip. Here is the method:
(§6) 50 to 100 ul of the diluted supernatant was injected (kininject) at 50 ul/min flow rate, followed by a 5 minute dissociation phase. Association and dissociation off-rates and constants were calculated using BIAevaluation software v4.1 (Biacore).

Assay [18] deals with T5, cynomolgous IL-13. The experiment in a line: Biacore SPR, biotinylated cynomolgous IL-13 on SA chip. Here is the method:
as §6

For assay [19], the target named is T1, human IL-13. Description: IL-13 receptor alpha2 RBA, competition. As to the method:
as §2
This is another data set of the same source.

Assay [20] deals with T1, human IL-13. The experiment in a line: Biacore SPR, IL-13 surface.
Assay [21] addresses T2, human IL-4. The experiment in a line: cell-based or functional assay.
Assay [22] concerns the target T2, human IL-4. The experiment in a line: cell-based or functional assay. This is another data set of the same source.
In assay [23] the target is T2, human IL-4. The experiment in a line: IL-4 RBA: ELISA, IL-4R/Fc coated, biotinylated IL-4.
Source text: as §5
This is another data set of the same source.

T5 sequence (Q0PW92 entry or part of it limits assumed, form in doubt): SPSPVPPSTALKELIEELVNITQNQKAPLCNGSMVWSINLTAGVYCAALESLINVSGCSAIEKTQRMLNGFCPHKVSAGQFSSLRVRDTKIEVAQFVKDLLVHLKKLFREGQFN
T1 sequence (P35225 35-146 limits assumed): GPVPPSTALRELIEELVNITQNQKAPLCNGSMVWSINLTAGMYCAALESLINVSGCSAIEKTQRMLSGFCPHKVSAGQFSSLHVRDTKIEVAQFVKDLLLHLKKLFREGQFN
Chain of variant IL-13 (R130Q) (human), P35225 (P35225 35-146, stated change not applied): as the sequence (P35225 35-146 limits assumed) above

B1: DOM10-176-535 (other)
VL: DIQMTQSPSSLSASVGDRVTITCRASQWIGPYLNWYQQKPGKAPKPLIYMGYWAPSGVPSRFSGSGSGTDFTLTISSLQPEDFATYYCQQDLYPPFTFGQGTKVEIKR
notes: Vk dAb
Take B1: the “IC50, TF-1 proliferation with human IL-13” value in the assay with human IL-13 [1] was found to be 6 nM. Also, the IC50, TF-1 proliferation with variant IL-13 (R130Q) in assay [2] is 7.8 nM. For the same molecule, the IC50 is 1 nM with human IL-13 [3], roughly 0.5 nM in the assay with human IL-13 [4] and 7.9 nM in the assay with human IL-13 [5]. Further, in the assay with human IL-13 [6], the “ND50, IL-13 induced TF-1 cell proliferation” value was determined as 0.77 nM.

B2: DOM9-155-1 (other)
VL: DIQMTQSPSSLSASVGDRVTITCRASLDIGDWLHWYQQKPGKAPKLLIGWGSGLQSGVPSRFSGSGSGTDFTLTISSLQPEDFATYYCLQEGWGPPTFGQGTKVEIKR
notes: Vk dAb
For B2, the binding result with human IL-4 [7] was “binds”.

B3: DOM9-155-77 (other)
VL: B2 VL with L27R, D28H, G30S, G49P, G51A, Q55W
notes: Vk dAb
Consider B3, for which the binding result with human IL-4 [8] and with rhesus IL-4 was “binds” in each case.

B4: DOM9-155-25 (other)
VL: B2 VL with L27R, D28P, G30S, G49A, G51A, G53T, Q55D
notes: Vk dAb
For the molecule B4, the binding result in the assay with cynomolgous IL-4 and with rhesus IL-4 was “binds” in each case. Moreover, in the assay with human IL-4 [9], the IC50 is 0.73 nM and 1 nM.

B5: DOM10-275-1 (other)
VH: EVQLLESGGGLVQPGGSLRLSCAASGFTFDREEMDWVRQAPGKGLEWVSTISPSGRKTYYADSVKGRFTISRDNSKNTLYLQMNSLRAEDTAVYYCAKAYTGFDYWGQGTLVTVSS
notes: VH dAb
As to B5, the 50% inhibitory concentration (IC50) in the assay with human IL-13 [3] is 38 nM; in the assay with human IL-13 [11] it was 31.3 nM. For the same molecule, in the assay with human IL-13 [10], the “IC50, IL-13 cell binding assay (so in the source)” value was determined as 37 nM. Besides, the dissociation constant (Kd) with human IL-13 [12] is 25 nM and 28 nM and 27 nM.

B6: DOM10-276-15 (other)
VH: B5 VH with D30R, R31D, E32Y, T50S, S54N, R56S, K57E, Y59N, G102S
notes: VH dAb
Turning to B6, in the assay with human IL-13 [3], the IC50 stood at 100 nM. Further, the “IC50, IL-13 cell binding assay (so in the source)” value with human IL-13 [13] was determined as 90 nM. Moreover, binding with human IL-13 [14] was characterised by a dissociation constant (Kd) of 1.5 nM.

B7: DOM10-275-78 (other)
VH: B5 VH with A23V, R31V, E32A, G55R, K57G, F103R, D104S, Y105L, Q108P
notes: VH dAb
For B7, the “EC50, HEK293 STAT6 SEAP reporter assay, hIL-13” value with human IL-13 [15] turned out to be 2.5 nM. Besides, in the assay with cynomolgous IL-13 [16], the “EC50, HEK293 STAT6 SEAP reporter assay, cIL-13” value worked out at 1.4 nM. Besides, the figures for the Kd with human IL-13 [17] and in the assay with cynomolgous IL-13 [18] were 0.072 to 0.1 nM and 0.32 to 0.75 nM, respectively.

B8: DOM10-53-316 (other)
VH: GVQLLESGGGLVQPGGSLRLSCAASGFIFAWYDMGWARQAPGKGLEWVSSIDWHGEVTYYADSVKGRFTISRDNSKNTLYLQMNSLRAEDTAVYYCATAEDEPGYDYWGQGTLVTVSS
notes: VH dAb
On to B8, for which, in the assay with human IL-13 [1], the “IC50, TF-1 proliferation with human IL-13” value was found to be 0.39 nM. In assay [2], this molecule came in with an IC50, TF-1 proliferation with variant IL-13 (R130Q) of 0.52 nM. The half-inhibitory concentration (IC50) with human IL-13 [19] was 2 nM; with human IL-13 [5], 1.2 nM.

B9: DOM10-53-386 (other)
VH: B8 VH with A37V, E56K, V57I
notes: VH dAb
For the molecule B9, the binding result with human IL-13 [20] was “binds”.

B10: DOM10-53-474 (other)
VH: B8 VH with I28T, A37V
notes: VH dAb
B10 showed a half-maximal effective concentration (EC50) in the assay with human IL-13 [3] of 0.023 nM. Further, the “EC50, HEK293 STAT6 SEAP reporter assay, hIL-13” value with human IL-13 [15] came out at 0.63 nM. In the assay with cynomolgous IL-13 [16], the “EC50, HEK293 STAT6 SEAP reporter assay, cIL-13” value was 11.1 nM. In addition, the Kd is 0.028 nM with human IL-13 [17] and 2 nM in the assay with cynomolgous IL-13 [18].

B11: DOM9-44-502 (other)
VL: DIQMTQSPSSLSASVGDRVTITCRASQNINFWLRWYQQKPGKAPTLLIYDASRSQSGVPSRFSGSGSGTDFTLTISSLQPEDFATYYCQQDLMPPYTFGQGTKVEIKR
notes: Vk dAb
For B11, the “ND50, IL-4 induced TF-1 cell proliferation” value in the assay with human IL-4 [21] is 4.5 nM. Also, the “average inhibition of HDM induced PBMC proliferation, 100 nM dAb, responding donors” value with human IL-4 [22] is 38%. Further, the IC50 with human IL-4 [9] is 5.5 nM and 8.6 nM and 4.1 nM and 3.6 nM; in the assay with human IL-4 [23], 4 nM.
